Values joined by “and” are separate entries in the source; they are usually repeats but may differ in a detail not shown here. Identical values can stand only once. “Also recorded” adds a separate entry of the source.
Experiments:
[1] = target: T1, sEGFR (recombinant extracellular domain of the wild-type EGFR) (Homo sapiens, UniProt P00533); assay: ELISA on sEGFR coated plates; assay type: binding
T1 construct: sEGFR is the recombinant extracellular domain (amino acids 1-621) of the wild-type EGFR); host or cells: CHO cells
Method: Two types of ELISA were used to determine the specificity of the antibodies. […] Growth Factors. 18, 11-29). Antibodies were added to wells in triplicate at increasing concentration in 2% HSA in phosphate-buffered saline (PBS).

U87MG.DK cells = assay: binding to cell lines by FACS; design: species or system human
Method: Populations expressing similar levels of the various EGFR alleles (these expression levels correspond approximately to an amplification level of 25 gene copies; human glioblastomas typically have amplification levels from 10 to 50 gene copies of the truncated receptor) were selected by FACS as described previously (Nishikawa et al., 1994) and designated as U87MG.ΔEGFR, U87MG.DK, U87MG.wtEGFR, LN-Z308.ΔEGFR, LN-Z308.DK, LN-Z308.wtEGFR, A1207.ΔEGFR, A1207.DK, and A1207.wtEGFR, respectively. Each was maintained in medium containing G418 (U87MG cell lines, 400 μg/ml; LN-Z308 and A1207 cell lines, 800 μg/ml).
(§1) Stained cells were analyzed with a FACS Calibur using Cell Quest software (Becton-Dickinson PharMingen). […] 1. Mouse IgG2a or IgG2b was used as an isotype control.

denaturated sEGFR = target: T2, denaturated sEGFR (Homo sapiens, UniProt P00533); assay: BIAcore with immobilized sEGFR; assay type: binding
T2 construct: sEGFR is the recombinant extracellular domain (amino acids 1-621) of the wild-type EGFR); host or cells: CHO cells
Method: In a second set of BIAcore experiments, sEGFR was immobilized on a CM microsensor chip at a surface density of ˜4000RU. Serial dilutions of mAbs were tested for reactivity with sEGFR.

wtEGFR on A431 cells = target: T3, wtEGFR on A431 cells (Homo sapiens, UniProt P00533); assay: Scatchard analysis on A431 cells; assay type: binding
T3 construct: endogenous in cells; host or cells: A431 human squamous carcinoma cells

A431 xenografts = assay: s.c. xenograft therapy study; assay type: in vivo, nude mice; settings: for mean tumor volume: day 13, 1 mg injection
Method: (§2) Tumor cells (3×10^6) in […] of PBS were inoculated subcutaneously into both flanks of 4-6 week old female nude mice (Animal Research Centre, Western Australia, Australia). […] Treatment was continued for a total of 6 doses, 3 times per week for 2 weeks. In the established model, treatment was started when tumors had reached a mean volume of 65±6.42 mm^3 (U87MG.Δ2-7), 84±9.07 mm3 (U87MG), 73±7.5 mm^3 (U87MG.wtEGFR) or 201±19.09 mm^3 (A431 tumors). Tumor volume in mm^3 was determined using the formula […], where length was the longest axis and width the measurement at right angles to the length (Clark et al. (2000) Therapeutic efficacy of anti-Lewis (y) humanized 3S 193 radioimmunotherapy in a breast cancer model: enhanced activity when combined with Taxol chemotherapy. Clin. Cancer Res. 6, 3621-3628). Data was expressed as mean tumor volume±S.E. for each treatment group. Statistical analysis was performed at given time points using Student's t-test. Animals were euthanized when the xenografts reached an approximate volume of 1.5 cm^3 and the tumors excised for histological examination. This research project was approved by the Animal Ethics Committee of the Austin and Repatriation Medical Centre.
AG1478 (4-(3-Chloroanilino)-6,7-dimethoxyquinazoline) is a potent and selective inhibitor of the EGFR kinase versus HER2-neu and platelet-derived growth factor receptor kinase (Calbiochem Cat. No. 658552). […] The results are illustrated in FIG. 12. […] 400 μg AG1478 was administered at 0, 2, 4, 7, 9, and 11 days post xenograft.
With respect to “(iv),” different groups of mice received either 0.5 mg/injection of each mAb, or 0.25 mg/injection of each mAb.
Finally, the fourth group of mice, which had been inoculated with A431 cells, received injections as in groups I and III, at 8, 10, 12 and 14 days after inoculation. At the start, the average tumor size was 71 mm^3.
To establish xenografts, mice were injected subcutaneously into the right and left inguinal mammary line with 1×10^6 A431 adenocarcinoma cells or 1×10^6 U87MG.de2-7 glioma cells in 100 μl of PBS. Tumor volume (TV) was calculated by the formula […] where length was the longest axis and width the measurement at right angles to length. […] Therapy was administered on days 6, 8, 11, 13, 15 and 18 for A431, and days 4, 6, 8, 11, 13 and 15 for the U87MG.de2-7 cell lines respectively. Mean±SEM tumor volumes until termination of the experiments due to ethical considerations of tumor burden are presented in FIG. 91 for the A431 xenograft until day 25, and in FIG. 92 for U87MG.de2-7 xenografts until day 31.

A431 cells = assay: binding to cell lines by FACS; design: species or system human
U87MG cells = assay: binding to cell lines by FACS; design: species or system human; settings: parental U87MG
Method: (§3) Briefly, cells were labelled with the relevant antibody (10 μg/ml) followed by fluorescein-conjugated goat anti-mouse IgG (1:100 dilution; Calbiochem San Diego, Calif., USA; Becton-Dickinson PharMingen, San Diego, Calif., US) as described previously (Nishikawa et al., 1994). FACS data was obtained on a Coulter Epics Elite ESP by observing a minimum of 5,000 events and analyzed using EXPO (version 2) for Windows.
as §1
(§4) Cell lines and antibodies were prepared as described in Example 1. […] Cells (1 3 10 6) were incubated with 5 μg/ml of the appropriate antibody or an isotype-matched negative control in PBS containing 1% HSA for 30 min at 4° C. After three washes with PBS/1% HSA, cells were incubated an additional 30 min at 4° C. with FTTC-coupled goat anti-mouse antibody (1:100 dilution; Calbiochem, San Diego, Calif.). After three subsequent washes, cells were analyzed on an Epics Elite ESP (Beckman Coulter, Hialeah, Fla.) by observing a minimum of 20,000 events and analyzed using EXPO (version 2) for Windows.

U87MG.wtEGFR cells = assay: binding to cell lines by FACS; design: species or system human
Method: as §3, §1, §4

U87MG xenografts = assay: s.c. xenograft therapy study; assay type: in vivo, nude mice; settings: 1 mg per injection
Method: as §2

U87MG.wtEGFR xenografts = assay: s.c. xenograft therapy study; assay type: in vivo, nude mice; settings: established model; day control animals were sacrificed; 1 mg injections
Method: as §2

B1: mAb806: murine IgG2b monoclonal antibody, clone 806, ATCC PTA-3858; VH SEQ ID NO:2, VL SEQ ID NO:4 (antibody, listed as Mus musculus, V domains shown)
VH: MRVLILLWLFTAFPGVLSDVQLQESGPSLVKPSQSLSLTCTVTGYSITSDFAWNWIRQFPGNKLEWMGYISYSGNTRYNPSLKSRISITRDTSKNQFFLQLNSVTIEDTATYYCVTAGRGFPYWGQGTLVTVSA
VL: MVSTAQFLAFLLLWFPGARCDILMTQSPSSMSVSLGDTVSITCHSSQDINSNIGWLQQRPGKSFKGLIYHGTNLDDEVPSRFSGSGSGADYSLTISSLESEDFADYYCVQYAQFPWTFGGGTKLEIKR
inhibition of binding to immobilized sEGFR by sEGFR in solution ([1]; ELISA): unable to inhibit | binding to immobilized wild-type sEGFR ([1]; ELISA, up to 10 μg/ml): dose-dependent and saturating binding curves | inhibition of binding to immobilized sEGFR by denatured sEGFR in solution ([1]; sEGFR heated 10 min at 95° C.): able to inhibit | FACS staining (U87MG.DK cells): reacted intensely | reactivity with denaturated sEGFR (denaturated sEGFR): strongly reactive | receptors (binding sites) per cell (wtEGFR on A431 cells; A431 cells): 2.3×10^5 | affinity for the wtEGFR on A431 cells (wtEGFR on A431 cells; Scatchard, average of three experiments): 9.5e+07 M⁻¹ | mean tumor volume (A431 xenografts; established model): 451±65.58 mm^3 and 450±70 mm^3 | effect on xenograft growth (A431 xenografts; preventative model, 0.1 mg): significantly inhibited; also recorded: inhibited significantly | reduction of tumor volume (A431 xenografts; preventative model, 0.1 mg mAb806, 400 μg AG1478): significant reduction of tumor volume | mean tumor volume (A431 xenografts; preventative model): 260±60.33 mm^3 and 260±60 mm^3 | FACS staining (A431 cells): Low, but highly reproducible, binding | FACS staining (U87MG cells): binding levels similar to the control antibody; also recorded: not with U87MG cells | FACS staining (U87MG.wtEGFR cells): stained; also recorded: reacted weakly | effect on xenograft growth (U87MG xenografts; established model): no effect | effect on xenograft growth (U87MG xenografts; preventative model): no effect | mean tumor volume (U87MG.wtEGFR xenografts): 468±78.38 mm^3 and 500±80 mm^3

Source: US20110293511A1, “SPECIFIC BINDING PROTEINS AND USES THEREOF” (priority 2009, published 2011)
